Test results published in patent US20210292393A1.
Values joined by “and” are separate entries in the source; they are usually repeats but may differ in a detail not shown here. Identical values can stand only once.

Columns and labels:
Settings in all cases: remark: other sources report otherwise
[1] = target: SARS-CoV-2 full length spike protein, V483A mutant (SARS-CoV-2), P0DTC2
[2] = target: SARS-CoV-2 full length spike protein, V483A mutant, expressed on CHO cells (SARS-CoV-2), P0DTC2
[3] = target: SARS-CoV-2 full length spike protein, D614G mutant, expressed on CHO cells (SARS-CoV-2), P0DTC2
[4] = target: SARS-CoV-2 full length spike protein, V367F mutant, expressed on CHO cells (SARS-CoV-2), P0DTC2

B1: antibody 538 (antibody, V domains shown)
VH: QLQLQESGPGLVKPSETLSLTCTVSGGSISSSSYYWGWIRQPPGKGLEWIGSINYSGSTYYNPSLKSRVTISVDTSKNQFSLKLSSVTAADTAVYYCARYHDYGDDYWGQGTLVTVSS
VL: QLVLTQSPSASASLGASVKLTCTLSSGHSRYAIAWHQQQPEKGPRYLMKLNSDGSHSKGDGIPDRFSGSSSGAERYLTISSLQSEDEADYYCQTWGTGIQVFGGGTKLTVL
median fold over isotype (fold over isotype) [1]: 1.48

B2: antibody 505 (antibody, V domains shown)
VH: EVQLVESGGGLVKPGGSLRLSCAASGFTFSSYSMNWVRQAPGKGLEWVSSISSSSSYIYYADSVKGRITISRDNAKNSLYLQMNSLRAEDTAVYYCAREYPNFRAEWLLSPYGMDVWGQGTTVTVSS
VL: QSALTQPASVSGSPGQSITISCTGTSSDVGSYNLVSWYQQHPGKAPKLMIYEVSKRPSGVSNRFSGSKSGNTASLTISGLQAEDEADYYCCSYAGSSTSVKVFGTGTKVTVL
median fluorescence intensity, fold over isotype control (fold over isotype) [2]: 1

B3: antibody 436 (antibody, V domains shown)
VH: QVQVVESGGGVVQPGRSLRLSCAASGFTFSSYAMHWVRQAPGKGLEWVAVISYDGNNEYYVDPVKGRFTISRDNSKNTLYLQMNSLRAEDTALYYCATSREAIVVGGILDYWGQGTLVTVSS
VL: DIQMTQSPSSLSASVGDRVTITCQASHDINNFLNWYQQKPGQAPKLLIYDASNLETGVPSRFSGSGSGTDFTFTISSLHPEDVATYYCQQYDGLPRYVTFGQGTKLEIR
median fluorescence fold over isotype control (fold over isotype) [1]: 0.85

B4: antibody 390 (antibody, V domains shown)
VH: EVQLVESGGGLIQPGGSLRLSCAASGFTVSSNYMSWVRQAPGKGLEWVSIIYSGGSTYYADSVKGRFTISRDNSKNTLYLQMNSLRAEDSAVYSCATTMVRGLIISYYYGMDVWGQGTTVTVSS
VL: QSALTQPASVSGSPGQSITISCTGTSSDVGGYNYVSWYQQHPGKAPKLMIYEVSNRPSGVSNRFSGSKSGNTASLTISGLQAEDEADYYCSSYTSSSTLVFGGGTKLTVL
median fluorescence fold over isotype control (fold over isotype) [2]: 1.36

B5: antibody 413 (antibody, V domains shown)
VH: EVQLVESGGGLIQPGGSLRLSCAASGFTVSGNYMNWVRQAPGKGLEWVSVIYSGGSTYYADSVKGRFTISRANSKNTLYLQMNSLRAEDTAVYYCASTSLVRGLIILYYYGMDVWGQGTTVTVSS
VL: QSALTQPASVSGSPGQSITISCTGTSSDVGGYNYVSWYQQHPGKAPKLMIYEVSNRPSGVSNRFSGSKSGNTASLTISGLQAEDEADYYCSSYTSSSTLVFGGGTKLTVL
median fluorescence fold over isotype control (fold over isotype) [2]: 1.67

B6: antibody 507 (antibody, V domains shown)
VH: QVQLQESGPGLVKPSGTLSLTCAVSGGSISSSNWWSWVRQPPGKGLEWIGEIYHSGNTNYNPSLKSRVTISVDKSKNQFSLKLSSVTAADTAVYYCARREWLRLFDYWGQGTLVTVSS
VL: QSALTQPASVSGSPGQSITISCTGTSSDVGSYNLVSWYQQHPGKAPKLMIYEVSKRPSGVSNRFSGSKSGNTASLTISGLQAEDEADYYCCSYAGSSTYVFGTGTKVTVL
median fluorescence intensity, fold over isotype control (fold over isotype) [2]: 1.12

B7: antibody 493 (antibody, V domains shown)
VH: EVQLVESGGGLIQPGRSLRLSCAASGFTVSITYMSWVRQAPGKGLEWVSLIYSGGSSYYADSVKGRFTISRDNSKNTLYLQMNSLRAEDTAVYYCATTMVRGVIISYYYGMDVWGQGTTVTVSS
VL: QSALTQPASVSGSPGQSITISCTGTSSDVGGYNYVSWYQQHPGKAPKLMIYEVSNRPSGVSNRFSGSKSGNTASLTISGLQAEDEADYYCSSYTSSSTLVFGGGTKLTVL
median fluorescence intensity, fold over isotype control (fold over isotype) [3]: 1.72
median fluorescence intensity, fold over isotype control (fold over isotype) [4]: 4.82
median fluorescence intensity, fold over isotype control (fold over isotype) [2]: 4.63 and 2.26

B8: antibody 383 (antibody, V domains shown)
VH: EVQLVESGGGLVQPGGSLRLSCAASGFTFSSYDMHWVRQATGKGLEWVSTIGTAGDTYYPGSVKGRFTISRENAKNSLYLQMNSLRAGDTAVYYCARVAYSSSFVYWYFDLWGRGTLVTVSS
VL: DIQMTQSPSSLSASIGDRVTITCRASQSISSYLNWYQQKPGKAPNLLIYAASSLQSGVPSRFSGSGSGTDFTLTISSLQPEDFATYYCQQSYTTPLYTFGQGTKLEIK
median fluorescence fold over isotype control (fold over isotype) [3]: 6.38
median fluorescence fold over isotype control (fold over isotype) [4]: 11.4
median fluorescence fold over isotype control (fold over isotype) [2]: 1.8

B9: antibody 464 (antibody, V domains shown)
VH: QVQLVQSGAEVKKPGASVKVSCKVSGYTLTELSMHWVRQAPGKGLEWMGGFDPEDGETIYAQKFQGRVTMTEDTSTDTAYMELSSLRSEDTAVYYCATARAFGVANWFDPWGQGTLVTVSS
VL: QSVLTQPPSASGTPGQRVTISCSGSSSNIGSNYVYWYQQLPGTAPKLLIYRNNQRPSGVPDRFSGSKSGTSASLAISGLRSEDEADYYCAAWDDSLSGLYVFGTGTKVTVL
median fluorescence intensity, fold over isotype control (fold over isotype) [3]: 0.86
median fluorescence intensity, fold over isotype control (fold over isotype) [4]: 1.04
median fluorescence intensity, fold over isotype control (fold over isotype) [2]: 1.04 and 1

B10: antibody 485 (antibody, V domains shown)
VH: QVQLQESGPGLVKPSGTLSLTCAVSGASISSSNWWSWVRQPPGKGLEWIGEIYHSGSTNYNPSLKSRVTISVDKSKNQFSLKLSSVTAADTAVYYCARRSYYGSGSYYPFDYWGQGTLVTVSS
VL: QSALTQPASVSGSPGQSITISCTGTSSDVGSYNLVSWYQQHPGKAPKLMIYEGRKRPSGVSNRFSGSKSGNTASLTISGLQAEDEADYYCCSYAGSSTYVFGTGTKVTVL
median fluorescence intensity, fold over isotype control (fold over isotype) [2]: 1.11

B11: antibody 389 (antibody, V domains shown)
VH: QVQLVESGGGVVQPGRSLRLSCAASGFTFSSYAMHWVRQAPGKGLEWVAVISYDGSNKYYADSVKGRFTISRDNSKNTLYLQMNSLRAEDTAVYYCASQGRMYVRGVDYGVYWGQGTLVTVSS
VL: NFMLTQPHSVSESPGKTVTISCTGSSGSIASNYVQWYQQRPGSAPTTVIYEDNQRPSGVPDRFSGSIDSSSNSASLTISGLKTEDEADYYCQSYDSSKISHAVFGGGTQLTVL
median fluorescence fold over isotype control (fold over isotype) [2]: 1.24

B12: antibody 551 (antibody, V domains shown)
VH: EVQLVESGGGLVQPGGSLRLSCAASGFTFSSYWMSWVRQAPGKGLEWVANINQDGSDKYYVDSVKGRFTISRDNAKNSLYLQMNSLRAEDTAVYYCARAPGWAAAPTFDYWGQGTLVTVSS
VL: QSALTQPRSVSGSPGQSVTISCTGTSSDVGGYNYVSWYQQHPGKAPKFMIYDVSKRPSGVPDRFSGSKSGNTASLTISGLQAEDEADYYCCSYAGSYTLVVFGGGTKLTVL
median fold over isotype (fold over isotype) [1]: 1.7

B13: antibody 382 (antibody, V domains shown)
VH: QVQLVESGGGVVQPGRSLRLSCAASGFTFSNYGMHWVRQAPGKGLEWMTVISFDGRNKYYADSVKGRFTISRDNSKNTLFLQMNSLTTEDTALYFCASGRRPRYSSGWSFDYWGQGTLVTVSS
VL: DIQMTQSPSSLSASVGDRVTITCQASQDIGNYLNWYQQKLGKAPNLLIYDASNLETGVPSRFSGSGSGTDFTFTINSLQPEDTATYYCQQYDDPSITFGQGTRLEIK
median fluorescence fold over isotype control (fold over isotype) [2]: 0.88

B14: antibody 490 (antibody, V domains shown)
VH: QVQLQESGPGLVKPSGTLSLTCAVSGGSISSSNWWSWVRQPPGKGLEWIGELYHSGSTNYNPSLKSRVTISVDKSKNQFSLKLSSVTAADTAVYYCARVGPYYYDSSGYYNYFDYWGPGTLVTVSS
VL: EIVLTQSPATLSLSPGERATLSCRASQSVSSYLAWYQQKPGQAPRLLIYDASNRATGIPARFSGSGSGTDFTLTISSLEPEDFAVYYCQQRSNWPPGITFGQGTRLEIK
median fluorescence intensity, fold over isotype control (fold over isotype) [3]: 1.03
median fluorescence intensity, fold over isotype control (fold over isotype) [4]: 1.14
median fluorescence intensity, fold over isotype control (fold over isotype) [2]: 1.15 and 1.13 and 1.52

B15: antibody 544 (antibody, V domains shown)
VH: QVQLQQWGAGLLKPSETLSLTCAVYGGSFSGYYWSWIRQPPGKGLEWIGEINHSGSTNYNPSLKSRVTISVDTSKNQFSLKLSSVTAADTAVYYCARGFKWFGELLFGAQGTLVTVSS
VL: not shown
median fold over isotype (fold over isotype) [1]: 1.58

B16: antibody 374 (antibody, V domains shown)
VH: QVQLQESGPGLVKPSGTLSLTCAVSGGSISSSKWWSWVRQPPGKGLEWIGEIYHSGSTNYNPSLKSRVTISVDKSKNQFSLKLSSVTAADTAVYYCARRELGEGTFTYWGQGTLVTVSS
VL: not shown
median fluorescence fold over isotype control (fold over isotype) [2]: 1.22

B17: antibody 472 (antibody, V domains shown)
VH: EVQLVESGGGLIQPGGSLRLSCAASGFTVSSNYMSWVRQAPGKGLEWVSVIYSGGTTHYADSVKGRFTISRDNSKNTLYLQMNSLRAEDTAVYYCANYGMDVWGQGTTVTVSS
VL: SYELTQPSSVSVSPGQTARITCSGDVLAKKYARWFQQKPGQAPVLVIYKDSERPSGIPERFSGSSSGTTVTLTISGAQVEDEADYYCYSAADKVFGGGTKLTVL
median fluorescence intensity, fold over isotype control (fold over isotype) [3]: 1.22
median fluorescence intensity, fold over isotype control (fold over isotype) [4]: 3.19
median fluorescence intensity, fold over isotype control (fold over isotype) [2]: 2.35 and 2.49

B18: antibody 304 (antibody, V domains shown)
VH: EVQLLESGGGLVQPGGSLRLSCAASGFTFSTYAMSWVRQAPGKGLEWVSAISGSGGSTYYADSVKGRFTISRDNSKNTLYLQMNSLRAEDTAVYYCASGYSPDYWGQGTLVTVSS
VL: AIQMTQSPSSLSASVGDRVTITCRASQGIRNDLGWYQQKPGKAPKLLIYAASSLQSGVPSRFSGSGSGTDFTLTISSLQPEDFATYYCLQDYNYPRTFGQGTKVEIK
median fluorescence intensity, fold over isotype control (fold over isotype) [1]: 0.66

B19: antibody 524 (antibody, V domains shown)
VH: QVQLVESGGGVVQPGRSLRLSCAASGFTFSSYAMHWVRQAPGKGLEWVAVISYDGSNKYYADSVKGRFTISRDNSKNTLYLQMNSLRAEDTAVYYCAKAGGGSYYRGFDYWGQGTLVTVSS
VL: QSVLTQPPSVSAAPGQKVTISCSGSNSNIGNNYVSWYQQLPGSAPKLLIYDNDKRPSGIPDRFSGSKSGTSATLGITGLQTGDEADYYCGAWDSSLTALVFGGGTKLTVL
median fold over isotype (fold over isotype) [1]: 0.99 and 1.25
